Residue numbers refer to the chain shown, from its start.
T1: human Nectin-4 extracellular antigen hNectin-4-His (human, UniProt Q96NY8 32-349)
T1 construct: C-terminal 8xHis tag included
T1 sequence: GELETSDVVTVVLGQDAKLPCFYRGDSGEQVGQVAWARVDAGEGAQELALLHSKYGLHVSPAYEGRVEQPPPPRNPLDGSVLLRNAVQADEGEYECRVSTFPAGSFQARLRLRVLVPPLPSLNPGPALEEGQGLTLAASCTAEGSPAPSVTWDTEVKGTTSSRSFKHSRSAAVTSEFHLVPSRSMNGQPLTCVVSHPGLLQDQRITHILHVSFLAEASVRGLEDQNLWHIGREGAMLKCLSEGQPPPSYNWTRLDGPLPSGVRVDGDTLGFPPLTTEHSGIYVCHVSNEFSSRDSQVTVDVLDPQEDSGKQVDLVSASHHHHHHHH

B1: 10F4-1F8 scFv (scFv, V domains shown)
VH: EVQLVESGGGLVQPGGSLRLSCAASGYTFTDYDMSWVRQAPGKGLEWVSSIITDGGGAFYADSVKGRFTISRDNSKNTLYLQMNSLRAEDTAVYYCAREYSDVVDYVSVRTPLDYWGQGTLVTVSS
VL: DIQMTQSPSSLSASVGDRVTITCRASQGISSYLAWYQQKPGKAPKLLIYAASSLQSGVPSRFSGSGSGTDFTLTISSLQPEDFATYYCQQHYTTPPTFGQGTKVEIKR
notes: phage clone supernatant
B2: 10F4-1C7 scFv (scFv, V domains shown)
VH: EVQLVESGGGLVQPGGSLRLSCAASGDSFDNYWMSWVRQAPGKGLEWVSAIDTHSDNSFYADSVKGRFTISRDNSKNTLYLQMNSLRAEDTAVYYCAREYSDVVDYVSVRTPLDYWGQGTLVTVSS
VL: B1 VL
notes: phage clone supernatant
B3: 10F4-2B11 scFv (scFv, V domains shown)
VH: B2 VH with D27G, D30T, A50V, T53S, H54T, S55G, D56S, S58R
VL: B1 VL
notes: phage clone supernatant
B4: 1G8-1C12 scFv (scFv, V domains shown)
VH: EVQLVESGGGLVQPGGSLRLSCAASGGSFYGFGMSWVRQAPGKGLEWVSGIYSHDADKRYADSVKGRFTISRDNSKNTLYLQMNSLRAEDTAVYYCARQTEDRSYGYDLDYWGQGTLVTVSS
VL: B1 VL
notes: phage clone supernatant
B5: 10F4-1E1 scFv (scFv, V domains shown)
VH: B2 VH with S28I, D30G, A50S, T53A, H54S, D56G, S58R
VL: B1 VL
notes: phage clone supernatant
B6: 10F4-1B9 scFv (scFv, V domains shown)
VH: EVQLVESGGGLVQPGGSLRLSCAASGFNFDNYYMSWVRQAPGKGLEWVSSIYQTDASIFYADSVKGRFTISRDNSKNTLYLQMNSLRAEDTAVYYCAREYSDVVDYVSVRTPLDYWGQGTLVTVSS
VL: B1 VL
notes: phage clone supernatant
B7: 10F4-2C2 scFv (scFv, V domains shown)
VH: B2 VH with D27F, S28N, D30S, A50V, T53A, D56A, S58I, F59R
VL: B1 VL
notes: phage clone supernatant
B8: 10F4-1F1 scFv (scFv, V domains shown)
VH: B2 VH with D27F, D30S, D52S, T53P, H54G, S55D, D56G, N57T, S58I
VL: B1 VL
notes: phage clone supernatant
B9: 10F4-2C4 scFv (scFv, V domains shown)
VH: B2 VH with D27Y, D30G, N31D, A50V, T53S, H54G, D56G, S58K, F59R
VL: B1 VL
notes: phage clone supernatant
B10: 10F4-2G2 scFv (scFv, V domains shown)
VH: B1 VH with T28N, T53A, D54S, G56S, A58N, F59Y
VL: B1 VL
notes: phage clone supernatant
B11: 10F4-1H4 scFv (scFv, V domains shown)
VH: B6 VH with D30T, Y33W, S50A, Y52S, Q53G, D55G, A56G, S57Y, I58T, F59Y
VL: B1 VL
notes: phage clone supernatant
B12: 10F4-3 scFv (scFv, V domains shown)
VH: EVQLVESGGGLVQPGGSLRLSCAASGFSFGDFAMSWVRQAPGKGLEWVSVIDGHTAYNSYADSVKGRFTISRDNSKNTLYLQMNSLRAEDTAVYYCAREYSDVVDYVSVRTPLDYWGQGTLVTVSS
VL: B1 VL
notes: phage clone supernatant
B13: 10F4-2C12 scFv (scFv, V domains shown)
VH: B12 VH with F27Y, S28N, F32Y, A33S, G53T, H54T, T55S, N58T, S59R
VL: B1 VL
notes: phage clone supernatant
B14: 10F4-1H6 scFv (scFv, V domains shown)
VH: B1 VH with Y27F, T28N, T30Y, S50G, I52K, D54H, G55S, A58N, F59G
VL: B1 VL
notes: phage clone supernatant
B15: 10F4-2A1 scFv (scFv, V domains shown)
VH: B2 VH with D27Y, S28T, N31D, W33D, A50G, D52K, T53A, S58K, F59R
VL: B1 VL
notes: phage clone supernatant
B16: 10F4-2A5 scFv (scFv, V domains shown)
VH: B1 VH with T28S, S50G, I52K, D54Y, G55K, G56S, G57D, F59R
VL: B1 VL
notes: phage clone supernatant
B17: 10F4-1H7 scFv (scFv, V domains shown)
VH: EVQLVESGGGLVQPGGSLRLSCAASGYSFDTYDMSWVRQAPGKGLEWVSGIKQYKGYTSYADSVKGRFTISRDNSKNTLYLQMNSLRAEDTAVYYCAREYSDVVDYVSVRTPLDYWGQGTLVTVSS
VL: B1 VL
notes: phage clone supernatant
B18: 10F4-2E1 scFv (scFv, V domains shown)
VH: B17 VH with Y27F, S28T, D30T, Q53Y, Y54S, G56Y, S59H
VL: B1 VL
notes: phage clone supernatant
B19: 10F4-1H1 scFv (scFv, V domains shown)
VH: B17 VH with D30G, T31N, Y32F
VL: B1 VL
notes: phage clone supernatant
B20: 10F4-2C6 scFv (scFv, V domains shown)
VH: B17 VH with Y27F, S28N, D30G, T31G, Y32F
VL: B1 VL
notes: phage clone supernatant
B21: 10F4-1G5 scFv (scFv, V domains shown)
VH: B2 VH with D27Y, S28T, N31S, Y32S, A50S, T53A, H54Y, S55G, N57Y, S58N
VL: B1 VL
notes: phage clone supernatant
B22: 10F4-5 scFv (scFv, V domains shown)
VH: B17 VH with Y27F, S28I, T31G, G50V, Q53D, Y54H, K55G, T58K, S59F
VL: B1 VL
notes: phage clone supernatant
B23: 10F4-2E4 scFv (scFv, V domains shown)
VH: B2 VH with D27Y, S28T, N31S, T53G, H54T, S55D, D56S, N57V, S58A, F59Y
VL: B1 VL
notes: phage clone supernatant
B24: 10F4-1G7 scFv (scFv, V domains shown)
VH: B1 VH with T28N, T30G, T53G, D54H, G56D, G57T, A58K
VL: B1 VL
notes: phage clone supernatant
B25: 10F4-1F9 scFv (scFv, V domains shown)
VH: B17 VH with Y27F, D30G, T31G, Y32F, Q53T, K55G, T58R
VL: B1 VL
notes: phage clone supernatant
B26: 10F4-2E6 scFv (scFv, V domains shown)
VH: B2 VH with D27F, D30G, N31D, T53Q, H54G, S55K, D56A, N57T
VL: B1 VL
notes: phage clone supernatant
B27: 10F4-2F11 scFv (scFv, V domains shown)
VH: B1 VH with T28N, D31S, S50G, I52K, D54G, G57S, F59R
VL: B1 VL
notes: phage clone supernatant
B28: 10F4-2H5 scFv (scFv, V domains shown)
VH: B2 VH with D27Y, S28I, D30T, A50S, T53Q, H54G, D56G, S58I
VL: B1 VL
notes: phage clone supernatant
B29: 10F4-2E8 scFv (scFv, V domains shown)
VH: B2 VH with D27F, S28N, D30G, W33D, A50S, D52I, T53P, S55G, N57Y
VL: B1 VL
notes: phage clone supernatant
B30: 10F4-1G8 scFv (scFv, V domains shown)
VH: B12 VH with S28N, G30S, A33D, D52K, G53P, H54S, T55G, A56D, N58I, S59N
VL: B1 VL
notes: phage clone supernatant
B31: 10F4-1H11 scFv (scFv, V domains shown)
VH: B1 VH with D31G, Y32F, D33W, I52S, T53P, G55S, G57T, A58K, F59H
VL: B1 VL
notes: phage clone supernatant

What follows are binders tested against T1, human Nectin-4 extracellular antigen … (assay: ELISA, phage scFv supernatant 1:50).

Binder | OD value [OD]
B1 | 1.49
B2 | 1.57
B3 | 1.55
B4 | 1.42
B5 | 1.63
B6 | 1.5
B7 | 1.58
B8 | 1.63
B9 | 1.53
B10 | 1.49
B11 | 1.38
B12 | 1.32
B13 | 1.45
B14 | 1.48
B15 | 1.76
B16 | 1.59

Binder | OD value [OD]
B17 | 1.49
B18 | 1.6
B19 | 1.61
B20 | 1.52
B21 | 1.41
B22 | 1.31
B23 | 1.43
B24 | 1.54
B25 | 1.48
B26 | 1.45
B27 | 1.46
B28 | 1.44
B29 | 1.38
B30 | 1.52
B31 | 1.56
